In the supplement of paper PMC10126150 one finds switch fluorescence ratio data, which are given here for 120 sequences.

± gives the standard deviation of the averaged measurements.

The data set has as its system ATP. Put plainly: switch fluorescence ratio, 500 uM ATP over buffer (Cy3 cluster intensity, sum of 5 cycles each) (fold (ratio)); higher = stronger signal-on switching upon ATP binding; sequences stand for … in TCGTCGGCAGCGTCAGATGTGTATAAGAGACAGTTTTTTTTTTTTTTTTTTTTTTTTT…TC. The settings on record: aptamer strand: ATP DNA aptamer (quencher-CACCTGGGGGAGTATTGCGGAGGAAGG + anchor), 100 nM annealed; ATP concentration: 500 uM. Summed up: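 Switching-strand clusters labelled with Cy3 on a modified Illumina MiSeq flow-cell were annealed to 100 nM quencher-labelled ATP aptamer, imaged in selection buffer, and re-imaged after 15 min with 500 uM ATP at 22 °C. This was done over five cycles with NaOH stripping and re-annealing in between. The fluorescence ratio is summed target-cycle over summed buffer-cycle Cy3 intensity per cluster, averaged per switch-domain sequence, excluding clusters outside 100-1000 RFU.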
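Note: ATP exposure 15 min at 22 °C before imaging.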

GGGGGGCAGG: the switch fluorescence ratio is 1.03 ± 0.039.
Next, GGGGGGCCGC: 1.03 ± 0.081.
To GGGGGGCCTT belongs 1 ± 0.04; to GGGGGGCGAT, 1.03 ± 0.049; to GGGGGGCTGG, 0.979 ± 0.025.
To GGGGGGGAAC belongs 1 ± 0.04; to GGGGGGGACT, 1 ± 0.034; to GGGGGGGATT, 1.01 ± 0.025.
With GGGGGGGCGA, the switch fluorescence ratio was 0.987 ± 0.041.
As to GGGGGGGGGC, the switch fluorescence ratio amounted to 1.03 ± 0.098.
On to GGGGGGGTAC, for which the switch fluorescence ratio worked out at 1.23 ± 0.62.
Next, GGGGGGGTAG: 1 ± 0.021.
Take GGGGGGGTTC: the switch fluorescence ratio amounted to 1 ± 0.028.
Next, GGGGGGTACT: 0.994 ± 0.033; GGGGGGTATC: 1.01 ± 0.03; GGGGGGTATG: 0.982 ± 0.022.
To GGGGGGTGCT belongs 1.02 ± 0.03; to GGGGGGTTTA, 1.01 ± 0.029; to GGGGGTAATT, 1.1 ± 0.052.
Next, GGGGGTACAT: 0.99 ± 0.011; GGGGGTAGTA: 1.01 ± 0.044.
Take GGGGGTATAT: the switch fluorescence ratio was determined as 1.03 ± 0.019.
Next, GGGGGTATCA: 0.98049 ± 0.00015.
Next, GGGGGTATCC: 1.03 ± 0.054; GGGGGTCAAT: 1.02 ± 0.04.
To GGGGGTCAGT belongs 0.991 ± 0.01.
As for GGGGGTCGCA, the switch fluorescence ratio came to 0.947 ± 0.069.
Next, GGGGGTGGAA: 0.97 ± 0.028.
Next, GGGGGTGGAC: 1.01 ± 0.052; GGGGGTGTGA: 1.02 ± 0.017.
Next, GGGGGTTCTA: 1.02 ± 0.011; GGGGGTTGAG: 1.03 ± 0.024.
As to GGGGTAAAAA, the switch fluorescence ratio amounted to 1.01 ± 0.018.
To GGGGTAAAGT belongs 1.01 ± 0.028; to GGGGTAATCT, 0.99977 ± 0.00079.
To GGGGTAATTC belongs 1.06 ± 0.039; to GGGGTACACG, 0.979 ± 0.027.
Consider GGGGTACACT, for which the switch fluorescence ratio was 0.9949 ± 0.0056.
Consider GGGGTAGAAC, for which the switch fluorescence ratio was 0.992 ± 0.028.
In the case of GGGGTAGAAT, the switch fluorescence ratio came out at 1.03 ± 0.061.
Regarding GGGGTATCGC, the switch fluorescence ratio was 1.002 ± 0.0095.
On to GGGGTATGAC, for which the switch fluorescence ratio is 1.02 ± 0.015.
To GGGGTATGGT belongs 1 ± 0.036; to GGGGTCAGTT, 0.973 ± 0.025.
As to GGGGTCCCAG, the switch fluorescence ratio was 0.971 ± 0.03.
On to GGGGTCGGTC, for which the switch fluorescence ratio amounted to 1 ± 0.023.
To GGGGTCGTTT belongs 0.9947 ± 0.0067; to GGGGTCTAAA, 1.009 ± 0.0063; to GGGGTCTTGG, 1.03 ± 0.038.
Next, GGGGTCTTTT: 0.999 ± 0.033; GGGGTGATTG: 0.979 ± 0.0077; GGGGTGGATT: 0.974 ± 0.013.
To GGGGTGGCAA belongs 1.008 ± 0.0037; to GGGGTGGCCT, 1 ± 0.027.
Take GGGGTGGCGT: the switch fluorescence ratio is 1.07 ± 0.1.
To GGGGTGGGAT belongs 0.998 ± 0.016; to GGGGTGGGGG, 1.01 ± 0.039.
Next, GGGGTGGGTC: 0.974 ± 0.012.
Next, GGGGTGGGTT: 0.985 ± 0.036.
Take GGGGTGGTAT: the switch fluorescence ratio came out at 0.99 ± 0.044.
Next, GGGGTGGTTT: 0.951 ± 0.037.
Next, GGGGTGTGAG: 0.989 ± 0.017; GGGGTGTTCT: 1.02 ± 0.045.
To GGGGTGTTGC belongs 0.999 ± 0.056.
Consider GGGGTTACTG, for which the switch fluorescence ratio was 0.993 ± 0.034.
Next, GGGGTTAGTC: 1.02 ± 0.0085.
Next, GGGGTTCAAT: 0.976 ± 0.044; GGGGTTCATC: 0.995 ± 0.022.
To GGGGTTCGTT belongs 1.01 ± 0.072.
For GGGGTTGAGT, the switch fluorescence ratio was 1.001 ± 0.005.
On to GGGGTTGCCG, for which the switch fluorescence ratio was 0.992 ± 0.034.
Next, GGGGTTGCGT: 0.996 ± 0.034.
GGGGTTGGCA: the switch fluorescence ratio came to 1.03 ± 0.014.
To GGGGTTGGCC belongs 0.986 ± 0.018; to GGGGTTGTTG, 0.988 ± 0.035; to GGGGTTTGCC, 0.9678 ± 0.0086.
To GGGGTTTGCG belongs 0.973 ± 0.011; to GGGGTTTGGG, 0.974 ± 0.028.
As to GGGGTTTGTC, the switch fluorescence ratio was 0.95 ± 0.049.
Turning to GGGGTTTGTG, the switch fluorescence ratio is 0.997 ± 0.037.
Next, GGGGTTTTCT: 1.01 ± 0.016.
On to GGGGTTTTTT, for which the switch fluorescence ratio was found to be 0.986 ± 0.026.
On to GGGTAAAGCT, for which the switch fluorescence ratio turned out to be 1.14 ± 0.018.
As for GGGTAAAGTC, the switch fluorescence ratio is 0.994 ± 0.047.
Next, GGGTAAATTA: 0.989 ± 0.042; GGGTAAGAAG: 0.971 ± 0.013; GGGTAATTAG: 1.03 ± 0.041.
Next, GGGTAATTGG: 0.986 ± 0.018; GGGTACAGAT: 0.986 ± 0.0099; GGGTACAGCT: 1.014 ± 0.0047.
To GGGTACCGAA belongs 0.981 ± 0.027; to GGGTACGGAA, 1.106 ± 0.01.
In the case of GGGTAGAGGG, the switch fluorescence ratio amounted to 0.987 ± 0.049.
As to GGGTAGAGGT, the switch fluorescence ratio was determined as 1.003 ± 0.0062.
To GGGTAGATGC belongs 1.01 ± 0.052.
Next, GGGTAGGAAG: 0.971 ± 0.024.
As to GGGTAGGCGC, the switch fluorescence ratio turned out to be 1.04 ± 0.029.
Next, GGGTAGGGAA: 0.998 ± 0.016; GGGTAGGGTG: 1.04 ± 0.055; GGGTAGGTGC: 1.13 ± 0.044.
To GGGTAGTCAG belongs 0.995 ± 0.017; to GGGTAGTGGT, 1.01 ± 0.038; to GGGTATACAG, 1.01 ± 0.053.
Next, GGGTATACCG: 1.018 ± 0.0017; GGGTATAGTA: 0.973 ± 0.044.
For the sequence GGGTATATGG, the switch fluorescence ratio stood at 1.01 ± 0.022.
To GGGTATATTG belongs 0.983 ± 0.011.
Next, GGGTATCTTG: 1 ± 0.003.
Next, GGGTATGATG: 1.01 ± 0.044; GGGTATTGGG: 0.99 ± 0.021.
GGGTCAACGT: the switch fluorescence ratio amounted to 0.987 ± 0.015.
Next, GGGTCAAGTC: 0.968 ± 0.04; GGGTCAGAGA: 0.987 ± 0.019; GGGTCAGGTT: 1.01 ± 0.029.
To GGGTCATGTA belongs 1.008 ± 0.0027; to GGGTCATTGT, 1.03 ± 0.032; to GGGTCCCGGG, 1.0586 ± 0.00036.
Next, GGGTCCGGCG: 0.995 ± 0.034; GGGTCGGCTA: 1.02 ± 0.035.
For the sequence GGGTCGGGAA, the switch fluorescence ratio came to 1.006 ± 0.0032.
